Measurements reported in patent publication US20090053807 (published 2009).
Positions of bridges follow the written chain, without caps; N, C: chain ends. Non-standard residues stand in square brackets, D forms with d. No end group written: not given here. Hyp = O=C(O)[C@@H]1C[C@@H](O)CN1; Tic = O=C(O)[C@@H]1Cc2ccccc2CN1; Abu = CC[C@H](N)C(=O)O

molecular target: T1, human insulin receptor (HIR) (human, UniProt P06213); test: competition

Row | Kd [µM] | Binder
1 | > 20 | GSLDESFYDWFER [S396]

molecular target: T1, human insulin receptor (HIR); test: competition; remark: another data set of the same source

Row | Binder | Kd [µM]
2 | FHENFYDAFVRQVSKK [S222] | > 20
3 | FYDWFA [S183] | > 20
4 | GSLDESFYDWF [S398] | > 20
5 | Ac-FYDWF [S184] | > 20
6 | AFYKWFAKK [S216] | > 20
7 | ESFYDWFE [S402] | > 20
8 | FYDWF [S165] | > 20
9 | APVSTEELRWGALLFGQWAG [S283] | > 20
10 | HLSVGEELSWWVALLGQWAR [S282] | > 20
11 | FHENAYDWFVRQVSKK [S219] | > 20
12 | AFYDWF [S182] | > 20
13 | AFYDWFAKK [S167] | > 20
14 | FYDWFKK [S166] | > 20
15 | FHENFYDWAVRQVSKK [S223] | > 20
16 | SDGEYNAIELLS [S118] | 2.4
17 | FHENFADWFVRQVSKK [S220] | > 20

More lines, now with the values ahead:

Row | Kd [µM] | Binder
18 | > 20 | GSLDESFYDWFER [S396]
19 | > 20 | ESFYDWFER [S401]
20 | 8.3 | [dF][dH][dE][dN][dF][dY][dD][dW][dF][dV][dR][dQ][dV][dS][dK][dK] [S114]
21 | 93 | HPTSKEIYAKLLK [S122]
22 | > 20 | ESFYDWF [S403]
23 | > 20 | AFYDWFA [S181]
24 | > 20 | [Abu]CLEE[dW]GASL[Tic]QCSG (disulfide 2-13 (inferred)) [S266]
25 | 0.45 | RD[Hyp]FYDWEDD[dI] [S268]
26 | > 20 | DPFYQGLWEWLRESGEE [S289]
27 | > 20 | AFYEWFAKK [S214]
28 | > 20 | AFYGWFAKK [S215]
29 | 3.7 | PLRESRNFYDWFVQQLE [S366]
30 | > 20 | WFGYAWLS [S317]
31 | 5.9 | AHENFYDWFVRQVSKK [S113]
32 | 7.5 | FHENFYDWFVAQVSKK [S108]
33 | > 20 | AFYDWFAK [S180]
34 | > 20 | GSLDESFYDWFE [S397]
35 | > 20 | GFREGQRWYWFVAQVT [S278]
36 | > 20 | ALEEEWAWVQVRSIRSGLPL [S284]

molecular target: T1, human insulin receptor (HIR); test: competition; remark: another data set of the same source

Row | Kd [µM] | Binder
37 | > 20 | GSLDESFYDWFER [S396]

molecular target: mIR (human, UniProt P06213); test: FP vs FITC-RP9

Row | IC50 [µM] | Binder
38 | 0.77 | FHENFYDWFVQRVSKK [H2C (D117)]
39 | > 100 | GGTVWPGYEWLRNA [E8 (D120)]
40 | 0.049 | GSLDESFYDWFERQLGKK [S371 (RP9)]
